Drawing on patent publication CN116514962A (THE AFFILIATED HOSPITAL OF GUANGZHOU MEDICAL UNIV GUANGZHOU …, dated 2023), this text covers binding result and Kd for 5 molecules.

Where only a bound is given, the exact number is not on record here.

The target of one assay is MERS病毒N蛋白 (MERS病毒 (MERS-CoV), UniProt K9N4V7 1-411). The experiment in a line: ELISA.
The target in a further assay is T1, 人冠状病毒HKU1 N蛋白 (人冠状病毒HKU1 (HCoV-HKU1), UniProt Q5MQC6 1-441).
T1 sequence: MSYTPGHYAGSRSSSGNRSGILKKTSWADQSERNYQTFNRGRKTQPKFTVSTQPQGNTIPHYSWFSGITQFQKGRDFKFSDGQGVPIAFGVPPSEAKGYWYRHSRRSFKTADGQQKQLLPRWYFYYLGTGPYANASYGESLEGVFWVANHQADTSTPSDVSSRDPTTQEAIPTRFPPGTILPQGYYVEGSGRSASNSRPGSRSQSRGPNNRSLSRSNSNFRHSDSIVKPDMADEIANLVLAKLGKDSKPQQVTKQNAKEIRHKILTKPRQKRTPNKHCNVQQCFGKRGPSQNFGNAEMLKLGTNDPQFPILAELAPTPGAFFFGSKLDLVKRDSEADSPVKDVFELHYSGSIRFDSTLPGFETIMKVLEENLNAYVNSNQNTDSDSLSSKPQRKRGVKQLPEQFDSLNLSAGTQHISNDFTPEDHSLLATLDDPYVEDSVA
The experiment in a line: ELISA.

A further assay concerns the target T2, 人冠状病毒OC43 N蛋白 (人冠状病毒OC43 (HCoV-OC43), UniProt P33469 1-448).
T2 sequence: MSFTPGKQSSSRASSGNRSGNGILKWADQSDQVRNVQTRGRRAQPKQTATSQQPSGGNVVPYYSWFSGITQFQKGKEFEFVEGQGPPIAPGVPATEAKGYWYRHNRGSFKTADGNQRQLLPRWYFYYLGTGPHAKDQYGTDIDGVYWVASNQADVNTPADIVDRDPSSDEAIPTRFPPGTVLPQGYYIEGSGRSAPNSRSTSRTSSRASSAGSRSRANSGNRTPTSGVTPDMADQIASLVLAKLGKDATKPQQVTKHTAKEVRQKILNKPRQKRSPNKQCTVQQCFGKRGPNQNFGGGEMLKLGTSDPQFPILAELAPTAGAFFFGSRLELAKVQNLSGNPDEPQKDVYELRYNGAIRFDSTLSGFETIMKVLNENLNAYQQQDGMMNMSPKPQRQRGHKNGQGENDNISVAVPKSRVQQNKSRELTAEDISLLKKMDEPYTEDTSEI
The experiment in a line: ELISA.

A further assay deals with SARS病毒N蛋白 (SARS病毒 (SARS-CoV), UniProt P59595 1-422). The experiment in a line: ELISA. On the technique in general: ELISA stands for enzyme-linked immunosorbent assay.
Another assay has as its target 新型冠状病毒(SARS-CoV-2)N蛋白 (SARS-CoV-2, UniProt P0DTC9 1-419).

B1: N3抗体 (N蛋白特异性单克隆抗体N3) (antibody, V domains shown)
VH: QMQLVQSGAEVKRPGSSVKVSCKASGGTFSVYAISWVRQAPGQGLEWMGGIIPIFGTANYAQKFQGRVTLTADESTSTAYMELSSLSSEDTAVYYCARGGYCSGANCPKWGEWSHSYNYMDVWGKGTTVTVSS
VL: not shown
Consider B1, for which the binding result is on record as “no binding” with MERS病毒N蛋白, “no binding” in the assay with 人冠状病毒HKU1 N蛋白, “no binding” in the assay with 人冠状病毒OC43 N蛋白 and “binds” in the assay with SARS病毒N蛋白.

B2: N5抗体 (N蛋白特异性单克隆抗体N5) (antibody, V domains shown)
VH: QVQLVQSGAEVKKPGSSVKVSCKASGGTFSSYAIGWVRQAPGQGLEWMGAIIPIFGTTIFAQKFQGRVTITADESTTTAYMELSSLRSDDTAVYYCARGGGGVERGVILTRWFDPWGQGTLVTVSS
VL: QSVLTQPPSVSAAPGQKVTLSCSGSSSNIGNNHVSWYQQLPGTAPKLLIYDNNKRPSGIPDRFSGSKSGTSATLGITGLQTGDEADYYCGTWDNSLSAGVFGGGTKLTVV
Broadly, the Kd is the free concentration of one partner at which half of the binding sites on the other are occupied at equilibrium, for simple one-to-one binding. The low end stands for a tighter complex, the high end for a looser complex. In the case of B2, the binding result in the assay with MERS病毒N蛋白 is given as “no binding”; with 人冠状病毒HKU1 N蛋白, “no binding”; with 人冠状病毒OC43 N蛋白, “no binding”; in the assay with SARS病毒N蛋白, “binds”. In addition, the Kd with 新型冠状病毒(SARS-CoV-2)N蛋白 was under 0.001 nM.

B3: N83抗体 (N蛋白特异性单克隆抗体N83) (antibody, V domains shown)
VH: QVQLQESGPRLVKSSETLSLTCTVSGGSISSGSYYWNWIRQPAGKGLEWIGRVYISGVTSYNPSLKSRVTISLDISKNQFSLQLTSVTAADSAVYYCARGGMAVGAPLYYYFYGMDVWGQGTTVTVSS
VL: DVVMTQSPLSLPVTPGEPASISCRSSQSLLHSNGYNYVDWYLQKPGQSPQLMIYLGSNRASGVPDRFSGSGSGTHFTLKISRVEAEDVGVYYCMQALQTLSITFGQGTRLEIK
On to B3, for which the binding result is recorded as “no binding” in the assay with MERS病毒N蛋白, “no binding” with 人冠状病毒HKU1 N蛋白, “no binding” in the assay with 人冠状病毒OC43 N蛋白 and “binds” in the assay with SARS病毒N蛋白. The molecule further gave a Kd with 新型冠状病毒(SARS-CoV-2)N蛋白 of 1.76 nM.

B4: N31抗体 (N蛋白特异性单克隆抗体N31) (antibody, V domains shown)
VH: QMQLVQSGAEVKKPGSSVKVSCKASGGTFSSYGISWVRQAPGQGLEWMGGIIPILGTANYAQRFQGRIALTADESTSTAYMEVSSLRSEDTAVYYCARGMWSNPPGYCCSYMDVWGKGTTVTVSS
VL: EIVLTQSPATLSVSPGERVTLACRASQSLRSKLAWYQQKPGQAPRLLIYDASTRATGFPARFSGSGSGTEFTLTISSLQSEDFAVYYCQQYSNWPRTFGQGTKLEIK
As to B4, the binding result with MERS病毒N蛋白 is on record as “no binding”; with 人冠状病毒HKU1 N蛋白 it was “no binding”; with 人冠状病毒OC43 N蛋白, “no binding”; with SARS病毒N蛋白 it was “binds”. For the same molecule, the dissociation constant Kd in the assay with 新型冠状病毒(SARS-CoV-2)N蛋白 is under 0.001 nM.

B5: 3B7抗体 (N蛋白特异性单克隆抗体3B7) (antibody, V domains shown)
VH: QMQLVQSGAEVKKPGASVRVSCKVSGYSLTELPMHWVRQAPGKGLEWVGSFDPQDAETTYAQRFQGRVAMTEDTSTDTAYMELSSLRSEDTAVYYCATPAPTIVGVVIYALHIWGQGTMVTVSS
VL: EIVLTQSPGTLSLSPGERATLSCRASQRVSDNSLAWYQQKPGQAPSLLIFAASIRAPGIPDRISGTGSGTDFTLTINRLEPEDFVVYFCLQYTTSPPLTFGGGTKLEIK
Consider B5, for which the binding result with MERS病毒N蛋白 is recorded as “no binding”; with 人冠状病毒HKU1 N蛋白 it was “no binding”; with 人冠状病毒OC43 N蛋白, “no binding”; with SARS病毒N蛋白, “binds”. In the assay with 新型冠状病毒(SARS-CoV-2)N蛋白, binding was characterised by a dissociation constant (Kd) of 1.94 nM.
